T1: human MAdCAM expressed on cells (human, UniProt Q13477 19-382)
T1 construct: whole, on cells
T1 sequence (looked up): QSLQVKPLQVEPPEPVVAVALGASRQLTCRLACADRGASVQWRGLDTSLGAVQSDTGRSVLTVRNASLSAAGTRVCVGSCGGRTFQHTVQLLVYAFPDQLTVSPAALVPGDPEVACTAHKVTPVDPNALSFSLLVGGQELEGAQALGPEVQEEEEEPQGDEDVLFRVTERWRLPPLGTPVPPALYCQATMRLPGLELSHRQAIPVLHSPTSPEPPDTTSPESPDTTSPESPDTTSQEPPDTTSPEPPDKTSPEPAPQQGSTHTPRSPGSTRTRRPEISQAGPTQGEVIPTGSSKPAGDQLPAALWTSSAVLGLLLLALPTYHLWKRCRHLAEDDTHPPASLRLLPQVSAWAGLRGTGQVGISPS

T2: mouse MAdCAM expressed on cells (mouse, UniProt Q61826 22-405)
T2 construct: whole, on cells
T2 sequence (looked up): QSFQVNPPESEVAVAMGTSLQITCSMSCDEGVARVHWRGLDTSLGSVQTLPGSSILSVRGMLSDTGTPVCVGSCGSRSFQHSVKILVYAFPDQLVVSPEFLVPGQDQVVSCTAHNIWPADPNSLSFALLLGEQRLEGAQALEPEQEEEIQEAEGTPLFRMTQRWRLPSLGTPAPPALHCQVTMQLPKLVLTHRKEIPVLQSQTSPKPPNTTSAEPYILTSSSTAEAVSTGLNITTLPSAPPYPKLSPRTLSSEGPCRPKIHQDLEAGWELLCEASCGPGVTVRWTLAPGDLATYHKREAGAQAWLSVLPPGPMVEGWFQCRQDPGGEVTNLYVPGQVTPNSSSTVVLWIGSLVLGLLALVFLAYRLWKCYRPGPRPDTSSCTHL

T3: recombinant mouse MAdCAM-1 (mouse, UniProt Q61826 22-364, limits assumed)
T3 construct: also called mMAdCAM-1
T3 sequence (looked up): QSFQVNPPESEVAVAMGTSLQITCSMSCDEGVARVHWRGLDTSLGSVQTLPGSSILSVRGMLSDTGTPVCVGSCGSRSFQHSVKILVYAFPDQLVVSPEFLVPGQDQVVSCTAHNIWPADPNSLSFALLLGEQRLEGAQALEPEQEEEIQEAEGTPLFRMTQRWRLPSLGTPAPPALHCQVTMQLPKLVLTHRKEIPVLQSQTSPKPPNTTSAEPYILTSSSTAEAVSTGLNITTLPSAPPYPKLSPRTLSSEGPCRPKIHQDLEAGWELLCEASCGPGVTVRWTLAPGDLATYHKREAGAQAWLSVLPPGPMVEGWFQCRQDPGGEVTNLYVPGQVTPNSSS

T4: human MAdCAM protein (human, UniProt Q13477 19-317, limits assumed)
T4 construct: also called soluble monomeric human MAdCAM; recombinant human MAdCAM
T4 sequence (looked up): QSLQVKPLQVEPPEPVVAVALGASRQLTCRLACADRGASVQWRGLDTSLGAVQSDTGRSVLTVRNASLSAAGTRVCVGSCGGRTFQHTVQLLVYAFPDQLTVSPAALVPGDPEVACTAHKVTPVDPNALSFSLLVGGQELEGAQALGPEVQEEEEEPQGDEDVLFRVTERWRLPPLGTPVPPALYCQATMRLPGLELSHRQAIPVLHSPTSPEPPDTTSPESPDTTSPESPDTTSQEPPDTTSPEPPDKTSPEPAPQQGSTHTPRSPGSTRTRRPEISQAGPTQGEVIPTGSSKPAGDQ

B1: MAdCAM antibody Table 1 clone 5 (scFv)
scFv: EVQLLESGGGLVQPGGSLRLSCAASGFTFSSYWMHWVRQAPGKGLEWVSSISPGGSNIDYADSVKGRFTISRDNSKNTLYLQMNSLRAEDTAVYYCAREVQLSHYDYWGQGTLVTVSSGGGGSGGGGSGGGGSGGGGSDIQMTQSPSSLSASVGDRVTITCRASQGISNSLAWYQQKPGKAPKLLIYGASSLQSGVPSRFSGSGSGTDFTLTISSLQPEDFATYYCQQANSFPFTFGQGTKVEIK
B2: MAdCAM antibody Table 1 clone 19 (scFv)
scFv: EVQLLESGGGLVQPGGSLRLSCAASGFTFDDYAMHWVRQAPGKGLEWVSGISWNSGSIGYADSVKGRFTISRDNSKNTLYLQMNSLRAEDTAVYYCAKDIVAAGHYYYGMDVWGQGTTVTVSSGGGGSGGGGSGGGGSGGGGSDIQMTQSPSSLSASVGDRVTITCQASQDISNYLNWYQQKPGKAPKLLIYDASNLETGVPSRFSGSGSGTDFTLTISSLQPEDFATYYCQQSYSTPLTFGGGTKVEIK
B3: MAdCAM antibody Table 1 clone 59 (scFv)
scFv: EVQLLESGGGLVQPGGSLRLSCAASGFTFSDFWMHWVRQAPGKGLEWISYISGDSGYTNYADSVKGRFTISRDNSKNTLYLQMNSLRAEDTAVYYCARDRPYYYYMDVWGKGTTVTVSSGGGGSGGGGSGGGGSGGGGSDIQMTQSPSSLSASVGDRVTITCRASQSVSRSLAWYQQKPGKAPKLLIYAASSLQSGVPSRFSGSGSGTDFTLTISSLQPEDFATYYCQQYKSYPVTFGQGTKVEIK
B4: MAdCAM antibody Table 1 clone 4 (scFv)
scFv: QVQLVQSGAEVKKPGASVKVSCKASGGTFSSYAISWVRQAPGQGLEWMGSINPSGDTTSYAQKFQGRVTMTRDTSTSTVYMELSSLRSEDTAVYYCAKDKAQWLVGYFDYWGQGTLVTVSSGGGGSGGGGSGGGGSGGGGSDIQMTQSPSSLSASVGDRVTITCQASQDISNSLNWYQQKPGKAPKLLIYAASSLQSGVPSRFSGSGSGTDFTLTISSLQPEDFATYYCQQSYSSVITFGQGTKVEIK
B5: MAdCAM antibody Table 1 clone 66 (scFv)
scFv: EVQLLESGGGLVQPGGSLRLSCAASGFTFSSYWMHWVRQAPGKGLEWVAAISYDGKYKDYEDSVKGRFTISRDNSKNTLYLQMNSLRAEDTAVYYCARENKQWLASFDYWGQGTLVTVSSGGGGSGGGGSGGGGSGGGGSDIQMTQSPSSLSASVGDRVTITCQASQDISNFVNWYQQKPGKAPKLLIYAANLRSGVPSRFSGSGSGTDFTLTISSLQPEDFATYYCQQANSFPVTFGPGTKVDIK
B6: MAdCAM antibody Table 1 clone 1 (scFv)
scFv: EVQLLESGGGLVQPGGSLRLSCAASGFTFSSYGMHWVRQAPGKGLEWVAVISDDGSDKYYADSVKGRFTISRDNSKNTLYLQMNSLRAEDTAVYYCTTSKYYYYYGMDVWGQGTTVTVSSGGGGSGGGGSGGGGSGGGGSDIQMTQSPSSLSASVGDRVTITCQASQDISKSLNWYQQKPGKAPKLLIYAASSLQSGVPSRFSGSGSGTDFTLTISSLQPEDFATYYCQQGYSTPLTFGGGTKVEIK
B7: MAdCAM antibody Table 1 clone 2 (scFv)
scFv: QVQLVQSGAEVKKPGASVKVSCKASGYPFIGYYLHWVRQAPGQGLEWMGIINPSGGSTSYAQKFQGRVTMTRDTSTSTVYMELSSLRSEDTAVYYCAREGRLSYGMDAWGQGTLVTVSSGGGGSGGGGSGGGGSGGGGSDIQMTQSPSSLSASVGDRVTITCRASQSISSYLAWYQQKPGKAPKLLIYGASTLESGVPSRFSGSGSGTDFTLTISSLQPEDFATYYCQQTWGPPFTFGQGTKLEIK
B8: MAdCAM antibody Table 1 clone 6 (scFv)
scFv: EVQLLESGGGLVQPGGSLRLSCAASGFTFNNYAFHWVRQAPGKGLEWVSRINSYGTSTTYADSVKGRFTISRDNSKNTLYLQMNSLRAEDTAVYYCAREGPVAGYWYFDLWGQGTLVTVSSGGGGSGGGGSGGGGSGGGGSDIQMTQSPSSLSASVGDRVTITCRASQIIGTNLAWYQQKPGKAPKLLIYGASSLQSGVPSRFSGSGSGTDFTLTISSLQPEDFATYYCQQSYRLPFTFGQGTKVEIK
B9: MAdCAM antibody Table 1 clone 23 (scFv)
scFv: EVQLLESGGGLVQPGGSLRLSCAASGFTFSSYAMHWVRQAPGKGLEWVSGISGSGGSAYYADSVKGRFTISRDNSKNTLYLQMNSLRAEDTAVYYCATSQAPVDYYYYGMDVWGQGTTVTVSSGGGGSGGGGSGGGGSGGGGSDIQMTQSPSSLSASVGDRVTITCRASQSISSWLAWYQQKPGKAPKLLIYAASNLQRGVPSRFSGSGSGTDFTLTISSLQPEDFATYYCQQSYSIPITFGQGTKVEIK
B10: MAdCAM antibody Table 1 clone 63 (scFv)
scFv: EVQLLESGGGLVKPGGSLRLSCAASGFTFDDYAMHWVRQAPGKGLEWVASITSSSAFIDYAASVKGRFTISRDDSKNTLYLQMNSLKTEDTAVYYCARERVDWNSYFDLWGRGTLVTVSSGGGGSGGGGSGGGGSGGGGSEIVMTQSPATLSVSPGERATLSCRASQGISNSYLAWYQQKPGQAPRLLIYGASTRATGIPARFSGSGSGTEFTLTISSLQSEDFAVYYCQQYYTYPPTFGPGTKVDIK
B11: MAdCAM antibody Table 1 clone 20 (scFv)
scFv: EVQLLESGGGLVQPGGSLRLSCAASGFTFDDYAMHWVRQAPGKGLEWVSYIDTSSSHLYYADSVKGRFTISRDNSKNTLYLQMNSLRAEDTAVYYCARDEAAAGYYGMDVWGQGTTVTVSSGGGGSGGGGSGGGGSGGGGSDIQMTQSPSSLSASVGDRVTITCQAGQDISNYLNWYQQKPGKAPKLLIYDASNLETGVPSRFSGSGSGTDFTLTISSLQPEDFATYYCQQTYSTPITFGQGTKLEIK

This note sets out measurements from patent publication US20230235004A1 (published 2023).

One experiment addresses T1, human MAdCAM expressed on cells. As to the kind of experiment: cell binding.
Consider B1, for which the binding result is given as “binds”.

As for B2, the binding result is recorded as “binds”.

For B3, the binding result is on record as “binds”.

B4: the binding result was “binds”.

On to B5, for which the binding result is listed as “binds”.

Turning to B6, the binding result is recorded as “binds”.

B7: the binding result is listed as “binds”.

For the molecule B8, the binding result was “binds”.

With B9, the binding result is recorded as “binds”.

As to B10, the binding result is “binds”.

For B11, the binding result is recorded as “binds”.

The target in a further experiment is T2, mouse MAdCAM expressed on cells. Kind of experiment: cell binding.
For B1, the binding result was “binds”.

As for B2, the binding result was “no binding”.

Take B3: the binding result is “binds”.

B4: the binding result is “binds”.

As to B5, the binding result is “binds”.

Turning to B6, the binding result is listed as “binds”.

Take B7: the binding result is “binds”.

Turning to B8, the binding result was “no binding”.

Take B9: the binding result is “no binding”.

For B10, the binding result is “binds”.

Take B11: the binding result is “no binding”.

Another experiment has as its target T3, recombinant mouse MAdCAM-1. As to the kind of experiment: Octet. (In general: Biolayer interferometry detects binding as a change in optical thickness at a sensor tip.)
Turning to B1, the binding result is given as “binds”.

As for B2, the binding result is recorded as “no binding”.

For the molecule B3, the binding result is listed as “binds”.

As to B4, the binding result is recorded as “binds”.

Turning to B7, the binding result is “binds”.

Take B8: the binding result was “no binding”.

Turning to B9, the binding result is “no binding”.

With B10, the binding result is reported as “binds”.

For the molecule B11, the binding result was “no binding”.

In the next experiment the target is T4, human MAdCAM protein. Kind of experiment: Octet.
As for B1, the binding result is reported as “binds”.

For the molecule B2, the binding result is reported as “binds”.

Take B3: the binding result is “binds”.

For the molecule B4, the binding result is “binds”.

With B5, the binding result is recorded as “binds”.

In the case of B6, the binding result is on record as “binds”.

Take B7: the binding result is “binds”.

For the molecule B8, the binding result is “binds”.

In the case of B9, the binding result was “binds”.

Regarding B10, the binding result is “binds”.

As for B11, the binding result is “binds”.
